The nature of this data set: soluble fraction after stress (log2 fold change); higher = more stays soluble; pooled small domains, quantitative proteomics. To be noted: stress: 50 degC. The essentials: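 The stress applied to every library was 50°C. These custom libraries of small protein domains were pooled and measured at high throughput with quantitative proteomics as the read-out. Aggregation propensity is expressed as the base-two logarithm of the fold change in how much of each protein remains soluble. The higher the value, the more of that protein stays in solution.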

Take “HMASLASVAYETLRQALDNFQYVPGDRFSESEVGQQLGMSRTPVREALVRLQREGYISVLPKMGWVVNQ”: the “soluble fraction (log2)” value is -1.64.

With “HMDNWLSGLAVEADRMILTQPGEVFDRLSRAFEATLIRRALASTGGRRIEAAHLLGIGRNTITRKIQDLGL”, the “soluble fraction (log2)” value is -2.49. With “HMDFEEGAVKWFNTKKGYGFITRDQGDDIFVHFRNIKAQSRRSLTDGERVTFVVTEGDKGLQADHVSPV” the figure was -0.31; with “HMSDRLRLGRRIRAARLEQNLSQAALAERLGISASYLNLLEHDRRSLTTVLLLKLAQVLGLELRDLAAG”, -1.99.

As to “HMDSILMPGVVNKELREALAILKNEGIGWADPEYASSTVTRNYVISTDPVEGIELAPGQKVRLVVSLGPKP”, the “soluble fraction (log2)” value is -0.00706. In the case of “HMKMHKIIKERRLALNFTQEQVAKYLGVTTPAVNKWEKGISYPDISLLPALARLLDTDLNTLLSF”, the “soluble fraction (log2)” value was -2.1.

Take “HMTAVPADVETVTGFTALDRAGLDTLLARLGLAMDLEDLSFLQAYFRDTERRDPTLTEIRVVDTYWSDH”: the “soluble fraction (log2)” value is -1.38. With “HMQSKSEINELPKSIHMAFSPKNFELFIDNLKINEIDFSNWKGELNTIQERVDGQRQIWIQDPQGYWIEIN” the figure was -0.018. As for “HMGETWYEILEISSDATTEEIRQAYFEQARQYHPDTNPGELAREWFYQVQEAYETLSDPDRRRQYDESIKG”, the “soluble fraction (log2)” value was -0.402.

For “HMDLPATVPNLEGLTEVTARNKLTVAGLSLGEVKEVESDKEKGTVVGQSIAYGKRVTKGTKVDIEISSGK”, the “soluble fraction (log2)” value is 0.0361.

Consider “HMAITVPEGATLSDAAVLLKQAGAVRSADAFLTRAKVFGGSTPIKAGEFVIPVQASNKDILAILQGGK”, for which the “soluble fraction (log2)” value amounted to 0.021. Next, “HMKVYIKDISDLSDKLKSLLIENDIDDSNKLFEVEDQVLLEIKGLGSKTIDKIKDIVTEYLKKNN”: -0.218; “HMTPFVINVDRHGAVIINEKTVDIDEAVVLARQERSQGKSILLAGDKKAPYEAIIRVLDALKQAG”: -0.185. Next, “HMDYNSYGLTERELELVDYVLKGYSRKEMAEASGLKVNTIGSYMKKIYRKLNIHNRTELKERFI”: -0.37. Next, “HMNELVEATITTQTGRLDKVLTTIFPQYSRSQIQQLLEQGNILVNETLQKGKYKVKAGDKISLTEPAIKE”: 0.111; “HMLKEKETRALANFTNKFFGLDISEDLKPIALSELSKFKKTHKISNLEEFINSFQYDFQNEKILSLLDIFL”: -0.994.

In the case of “HMAKPAALLFEHRFDGMAEMRFRENIVKNDDGSYTYDEYFLSMLDRAGLEKIVQENMEVWIAYAKQ”, the “soluble fraction (log2)” value is -2.17. As to “HMPVLDETVPAALDGERIDRVVALLADVSRNRAGIAIAAGSVRLDGAVVTQRSRKVRADEELVVDGLER”, the “soluble fraction (log2)” value was -0.015. With “HMAQLPPTATARATSDVSGLTASAALRTLLEQGFVPQIHGSGKVSRQHPPAGTLLEPGSTIQLFLEPS” the figure was 0.354; with “HMKGQLVVFPNPASSNDMVRFNKNISFSIFDITGHLVDTKRNVNELSVGNLEAGTYILRTEQGDVLRMVI”, -1.24. With “HMGELYGTDQYKDGDAQDTNIGKLLEVNIDGKWQVATTGTSRFEFAGVMDDNGHKLIMISVLPEAKTV” the figure was -0.18; with “HMDRESFIKLGRELARSAFAHVGQKSTEKALETAADVLRLKDPNEVLARLGSAELTGRQVVQAIYPELI”, -0.0704; with “HMLKLSGEESQQLALRLREELARRRITRQGLADAAKISISTLEQVLAGRRTFTLATIVRLEEGLGIKLL”, -1.89. Next, “HMSILEIFGRNVQKYRKEQRLSQEKLAEYAGLHRTYIGMIERAEKNITLVNIEKIAKALNINLTKLLE”: -3.14; “HMNKEVDLPNFVGMTKENAQAQADKIKIKLEFEEEYSSDVEEGKIISQNPEYKENYKIKEKSTVSLKI”: 0.118; “HMKVIETKYNTYVVKSGDTLYSVAKKYGISVTELKEINDLSNNTLSIGQKLLVPATTIIIDE”: -0.117. “HMLSVKEQTYQIIKEKILNQEYPAGARININELAEELGISNSPIREALSLLEQQGLVISNRSSGATVT”: the “soluble fraction (log2)” value worked out at 0.00507.

Values taken from the domain aggregation screens of Martell et al. (2025).
